Source: a protein production outcome set (Wang et al. 2014)

Assay: label from the status in PepcDB records

Row | Sequence | protein production
1 | MVFMANKKKTKGKKTRRPTKAEIERQRAIQRMITALVLTIILFFGIIRLGIFGITVYNVIRFMVGSLAYLFIAATLIYLYFFKWLRKKDSLVAGFLIASLGLLIEWHAYLFSMPILKDKEILRSTARLIVSDLMQFKITVFAGGGMLGALIYKPIAFLFSNIGAYMIGVLFIILGLFLMSSLEVYDIVEFIRAFKNKVAEKHEQNKKERFAKREMKKAIAEQERIERQKAEEEAYLASVNVDPETGEILEDQAEDNLDDALPPEVSETSTPVFEPEILAYETSPQNDPLPVEPTIYLEDYDSPIPNMRENDEEMVYDLDDDVDDSDIENVDFTPKTTLVYKLPTIDLFAPDKPKNQSKEKDLVRKNIRVLEETFRSFGIDVKVERAEIGPSVTKYEIKPAVGVRVNRISNLSDDLALALAAKDVRIETPIPGKSLIGIEVPNSEIATVSFRELWEQSDANPENLLEVPLGKAVNGNARSFNLARMPHLLVAGSTGSGKSVAVNGIISSILMKARPDQVKFMMIDPKMVELSVYNDIPHLLIPVVTNPRKASKALQKVVDEMENRYELFSKIGVRNIAGYNTKVEEFNASSEQKQIPLPLIVVIVDELADLMMVASKEVEDAIIRLGQKARAAGIHMILATQRPSVDVISGLIKANVPSRIAFAVSSGTDSRTILDENGAEKLLGRGDMLFKPIDENHPVRLQGSFISDDDVERIVGFIKDQAEADYDDAFDPGEVSETDNGSGGGGGVPESDPLFEEAKGLVLETQKASASMIQRRLSVGFNRATRLMEELEAAGVIGPAEGTKPRKVLMTPTPSE | failed
2 | MVGERMWWWSSSSTKLRSNLERFLRGITPKPPSFSLSQSCKNDLNSLWIHENKDEIEYFRLSDLWDCFDEPSAYGLGSKVDLNNGESVMQYYVPYLSAIQIYTNKSTAISRIHSDVVDCESECWSDDSEIEKLSRSMSSGSSKIWDSVSDDSGYEIDGTSSLMRDKLGSIDFQYFESVKPHLRVPLTAKVNELAEKYPGLSTLRSVDLSPASWLAIAWYPIYHIPSRKTDKDLSTCFLSYHTLSSAFQGNLIEGDDEINETMKEETLCFDEGPVTKSIPLAPFGLVSYKLQGDLWRNQECGDQGRIVYLRSAADSWLKQLNVQDHHDHSFFSMNMSL | failed
3 | MVGKSKSPEFNFEDGMAYFDAVKVALQDTEPEKYQEFVRIFIDYTANRFGFETLSASLQELLRDHANLCHGSNVLLPFRLQTAIPPEASAEFHINKVVGRSVPPAVAVPTMDDATSYLNAVKEAFHDEPAKYMEITKLLTDLKARRINAASVIARMEELLKDHLNLLLGFCVFLSPTRRFITKLKARFLGDGSQVVDSVLQILRMHSEGNKSKDEASQEVRALIQGHEDLLMELSEIFSDP | failed
4 | MVGRDNVENTAMGEALSPSQISGRVDAVWGNPMAWEAAGWQWERLPAIRRMVNRHVTGDEAIDPLSWFFQRVAKDQTLPVRRALVLACGAGGLERQLISQGWVSEVVAVDLSPGALAAARDAARQAGISGIDYRQADMNALDVEGPFDLAVGSSALHHCENLEGIFAVVRRVLVPGGWFFLNDYIGPNRLQYDAAQVLEVNRLLQCLPDPLVMNAAGFSRRGFRPASLAEVIAFDPSEAPRSADILRVMGEALEVETVRPYGGNLLYLVLSNLAQNFDPAQSGDAAAPDYLRLLIEASDHWRATRHGQDHFAAAIARQPIS | failed
5 | MVGRRVSPALTKDDAHSYIIAVKETFHDEPTKYQEFIKLLNGVCDHRVDKYSVIARVEELMKDHQDLLLGFSVFLPPVSVEDFINKLKSKFVHLQTRFQSLDTHVVGAIRGLMKMFKEGKMSVKEVQEEVIDVLFYHEDLIEDFLRFFTKNPVSTASLLLQL | failed
6 | MVGVRMTKKVLIVEDNELNMKLFHDLLEAQGYETLQTREGLSALSIARENKPDLILMDIQLPEISGLEVTKWLKEDDDLAHIPVVAVTAFAMKGDEERIREGGCEAYISKPISVVHFLETIKRLLERQPA | not failed
7 | MVHTPLNFKFSEKREEWNLRFCRNVGVSIVELVTADASSAYVRGLMAVNGSKVYSILPFISIDAEKAKKAKFPEDRMSGVRGKVIPSVLPEIKGETILDIGCGFGTLTMELAKNNPESQVYGIDLHDSLTGQAEMNAEVLGLPNVEFRTGSAYALPFEKDSIDAVTCFLMLHHLEDIKFALFEIKRVLKKGGSLTAVEPLAHQHHHGPQLSEAEWKELFEEAGFGTETENMEGAVVLRAVKRELEHHHHHH | failed
8 | MVIDQTDPIYVLFHDEEWGVPVRDDKKLFELLVFSQALAEFSWPSILRRRDDFRKLFEEFDPSAIAQFTEKRLMSLRVNGCLILSEQKLRAIVENAKSVLKVKQEFGSFSNYCWRFVNHKPLRNGYRYGRQVPVKSPKAEYISKDMMQRGFRCVGPTVMYSFLQASGIVNDHLTACFRYQECNVETERETKSHETETKLDLHSPLLV | failed
9 | MVINRKIIGSYTQRQIAALLTDEPPSEQPKCNVRVVEMTYTTVGVVGEPARASGVVLVPDGPQCPGPYPVLGWGSATETLRSAEQAKGIISANGDDPLVTRLASQGYVVVSTDYLGLGGSNYPYHPYLHANSEASALIDALRASRTVLQHLNTPLSNKLMLSGFSQGGHTAMATQREIEAHLSNEFSLVASAPISGPYALSQTFLDTWTGRNEVGENNFAIILGTYAIVGMQRTYRNIYSDPSQVFQDPWANQVEALFPGKKDTTDLFLGDDLPAIDQIKEYFQPGFYSDFPKNRKNPFFVDLVRNDLLNWAPRTPTLLCGSDNDTVVPFLKNTNLAIASFKKRGSRQVSVVDIGTGNRKDNSALTHLSSEELCIVKVRNEFLEKKR | failed
10 | MVIRGTNNDDNLIGTTGNDIIEGLGGNDRFEGGRGNDTLTGGTGNDVFNLEQQQDNDVVTDFVRGQDKIDLRNLNINDWATLQLLISNDGQDNALITTFFNGSQSQIKLLNINPNLLQASDFIFNTVNLNQTIDGTNFADQLFGGLGNDTLRGFNGNDVLFGEQGDDRFEGGRGNDTFYGGAGNDVFNLEQQQDNDVVTDFVRGQDKIDLRNLNINDWATLQLLISNDGQDNALITTFFNGSQSQIKLLNINPNLLQASDFIFNTVNLNQTIDGTNFADQLFGGLGNDTLRGFFGNDVLFGEQGDDRFEGGRGNDTFYGGAGNDVFNLEQLQDNDVVTDFVRGQDKIDLRNLNINDWATLQLLISNDGQNNALITTFFNGDQSQIKLLNINPNLLQASDFIFNTVNLNQTIDGTNSPDQLFGGLGNDTLRGFFGNDVLFGEQGDDRFEGGRGNDTFYGGAGNDVFNLEQLQDNDVVTDFVQGQDKIDIRNLNINDWATLQLLISNDGQDNALITTFFNGDQSQIKLLNINPNLLQASDFIFNTVNLNQTIDGTNSPDQLFGGLGNDTLRGFFGNDVLFGEQGDDRFEGGRGNDTFYGGAGNDVFNLEQLQDNDVVIDFVQGQDKIDIRSLNISDWATLQLLISNDGQNNALITTFFNGDQSQIKLNNINPNLLQASDFIFNTNTVNLNQTIDGTNSPDQLFGGLGNDTLRGFFGNDVLFGEQGDDRFEGGAGNDTFYGGTGNDIAVYLGTRSQYQVTSNGGVFTVTDTVANRDGVDTLREVEQIQFSDQTITIGNTSPTITLAVSPASVTEDGTPNLIYTFTRTGSTTNALTVNYSVAGTATLNTDYAQTGAASFTATTGTITFAVGASTAILTINPTADTTVESNETVALTLASGTGYTVGTTTAVTGTITNDDFPSITLAVSPASVTEDGTPNLIYTFTRTGSTTNALTINFGVAGTATLNTDYAQSGAASFTATTGTITFAAGASTAILTINPTADTTVESNETVALTLASGTGYTVGTTTAVTGTITNDDTLPTGITINLSGSQTIVEGNSSPQNVTYTVTLSQASSQIITVQYATANGTATAGSDYTSTTGTLTFNPGETSKVINIPILNDSVNEANETFTLRLTSPTNATLGTTNTVTTTITDTLSASVTTTLPTNVENLTLTGTAAINGTGNAGNNILTGNSGNNILSGGAGNDTYAFVANAALGTDTITETATGGIDTIDFNGSTATVRVNLGVTTSQTVNNNLKLILSANNVIENATGGTGNDRLTGNALNNILAGGNGNDQLQGLAGNDTLWGGLGDDILTGGIGQDKYLFQSSGVFSSSLGVDYISQFDVGQDQIVLSKATFNAVTNSAGQALTDFAVVSDDEFVNASSARIVYSQGSGSLFYNRDGNVLGTSTVFEFARLGNPDITLSSSDFSLIA | failed
11 | MVIRVTERRVKLASIISYDFLFLVLLSGLLNLIITIFRERLLYVLSSFFQYIVSNPSVALGDALGFIFVLQALLLGLFIGGIVILSISFTINLTRIRSEYEEGVPLSTILRSRIITSSRLGIIANWISERSKRYINASADLESPTEVGVRYVAYFLVSLLVVIPVSLALSIALLSPLPFLLIFFPLTFIFYPEQKYKSRAREIRDDIQDEIPFFVTLITIINASGTTIYEGMRKILQFPIFKAMKKEALLIIRDIEFFGKSPLDALEHRSRLTLNRDYSWFLAGYSSIIRSGGDIEAYLFQKAREFLNWLQFRWRFYSERTSFLGELIVILFLIFPMFLIALAFFTSGAVISFLLIIPILFGTILYTITANNRPRYMDSIGLTKLQLLIGFIAALLTAGVIEIFLDEIYYAIGLGLLSFSLASTIFMYNQIREINDVENSLPQFLRDITEFRKIGYDLSRAIKTLAEEKRYRREFNRVLNEITKQDSMGIPITRAKINTRSWLGKFSLTTVQILIESGAVRPDLLEYLTEFTLNFIQSKKEAFSRMRAYQVLGILTPLLLIATILIAIVIIDSFTIVTLPTNTVGLPQFPNIISQFILSPVILAEMFIFILMSTFAIGLLVTKALYGTVQYMIMPAIGLTLAVLSIHFFSVIEPIILKFFSI | failed
12 | MVKDKNDVGPKTVAILGAGGKMGARITRKIHDSAHHLAAIEIAPEGRDRLQGMGIPLTDGDGWIDEADVVVLALPDNIIEKVAEDIVPRVRPGTIVLILDAAAPYAGVMPERADITYFIGHPCHPPLFNDETDPAARTDYHGGIAKQAIVCALMQGPEEHYAIGADICETMWSPVTRTHRVTTEQLAILEPGLSEMVAMPFVETMVHAVDECADRYGIDRQAALDFMIGHLNVEIAMWFGYSPKVPSDAALRLMEFAKDIVVKEDWREALNPAKVKQAAELIAGK | not failed
13 | MVKDLSDMSLKELWQLFPIFLVEHKEEWEDWYEEEKERLLHLLPSQSIKSISHIGSTAVPDIWAKNIVDILLEVPEKEDLQDFKKRLLDAGYLLMSEGEKRLSFNKGYTKDGFAEKVFHLHLRYQGDNDELYFRDYLREYPEVAKDYERLKLGLWEKYEHNRDAYTDAKSDFIRKYTQKAKKNDKGKDN | not failed
14 | MVKKIVNPINIIVVVMHISVSIYALFVNVPFKAELFKDNVVLCIYVITFYIGFLLLGDFFRERKIFRKRNDGNRESKTISIIGGIFLFAGILLGMSSVMTIYNIKVDASEYSIGRIIFDTIKVDNVKRESTTSKPQGIFVQRSITTIRTEEVDGISVKSNKRVEFKHCYLYGWQVIEGKIYNVKYLPTTHRILSIEEKK | failed
15 | MVKLIHTLADHGDDVNCCAFSFSLLATCSLDKTIRLYSLRDFTELPHSPLKFHTYAVHCCCFSPSGHILASCSTDGTTVLWNTENGQMLAVMEQPSGSPVRVCQFSPDSTCLASGAADGTVVLWNAQSYKLYRCGSVKDGSLAACAFSPNGSFFVTGSSCGDLTVWDDKMRCLHSEKAHDLGITCCDFSSQPVSDGEQGLQFFRLASCGQDCQVKIWIVSFTHILGFELKYKSTLSGHCAPVLACAFSHDGQMLVSGSVDKSVIVYDTNTENILHTLTQHTRYVTTCAFAPNTLLLATGSMDKTVNIWQFDLETLCQARSTEHQLKQFTEDWSEEDVSTWLCAQDLKDLVGIFKMNNIDGKELLNLTKESLADDLKIESLGLRSKVLRKIEELRTKVKSLSSGIPDEFICPITRELMKDPVIASDGYSYEKEAMENWISKKKRTSPMTNLVLPSAVLTPNRTLKMAINRWLETHQK | failed
16 | MVKVELVYIANSKNCLHYKMDLKQGATVEEALIESNIYSTCPETRELPVGVYGKRVSVDQVLKEGDRIEIYRPLILDPKEKRRKLAQFKK | failed
17 | MVKVLTACGNGMGSSMVIKMKVENALRQLGVSDIESASCSVGEAKGLASNYDIVVASNHLIHELDGRTNGKLIGLDNLMDDNEIKTKLEEALK | failed
